Target: T1, GST-YcgR-HA fusion (wild-type YcgR of E. coli) (E. coli, UniProt P76010 1-244)
T1 sequence (looked up): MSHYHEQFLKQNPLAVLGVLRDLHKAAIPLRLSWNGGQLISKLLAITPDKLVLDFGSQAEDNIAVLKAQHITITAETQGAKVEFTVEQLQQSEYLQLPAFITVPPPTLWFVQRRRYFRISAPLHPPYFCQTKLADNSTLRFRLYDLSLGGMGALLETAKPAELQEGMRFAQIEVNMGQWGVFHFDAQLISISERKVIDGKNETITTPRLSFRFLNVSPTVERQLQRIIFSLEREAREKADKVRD
Assay: pull-down

B1: FliG (E. coli) (natural protein, UniProt P0ABZ1 1-331, looked up)
chain: MSNLTGTDKSVILLMTIGEDRAAEVFKHLSQREVQTLSAAMANVTQISNKQLTDVLAEFEQEAEQFAALNINANDYLRSVLVKALGEERAASLLEDILETRDTASGIETLNFMEPQSAADLIRDEHPQIIATILVHLKRAQAADILALFDERLRHDVMLRIATFGGVQPAALAELTEVLNGLLDGQNLKRSKMGGVRTAAEIINLMKTQQEEAVITAVREFDGELAQKIIDEMFLFENLVDVDDRSIQRLLQEVDSESLLIALKGAEQPLREKFLRNMSQRAADILRDDLANRGPVRLSQVENEQKAILLIVRRLAETGEMVIGSGEDTYV
  fold increase of binding with c-di-GMP at 5 μM or higher over no added c-di-GMP: ~2 fold

B2: FliM (E. coli) (natural protein, UniProt P06974 1-334, looked up)
chain: MGDSILSQAEIDALLNGDSEVKDEPTASVSGESDIRPYDPNTQRRVVRERLQALEIINERFARHFRMGLFNLLRRSPDITVGAIRIQPYHEFARNLPVPTNLNLIHLKPLRGTGLVVFSPSLVFIAVDNLFGGDGRFPTKVEGREFTHTEQRVINRMLKLALEGYSDAWKAINPLEVEYVRSEMQVKFTNITTSPNDIVVNTPFHVEIGNLTGEFNICLPFSMIEPLRELLVNPPLENSRNEDQNWRDNLVRQVQHSQLELVANFADISLRLSQILKLNPGDVLPIEKPDRIIAHVDGVPVLTSQYGTLNGQYALRIEHLINPILNSLNEEQPK
  fold increase of binding with c-di-GMP at 5 μM or higher over no added c-di-GMP: ~2 fold
